Measured values: patent US20210284706A1 (published 2021)

Molecular target: OMCP
Test: method not stated

B1: human NKG2D (Example 21) (receptor)
chain: NSLFNQEVQIPLTESYCGPCPKNWICYKNNCYQFFDESKNWYESQASCMSQNASLLKVYSKEDQDLLKLVKSYHWMGLVHIPTNGSWQWEDGSILSPNLLTIIEMQKGDCALYASSFKGYIENCSTPNTYICMQRTV
Kd: 0.1 nM
